In US10377818B2, “Method of treating glioma” (The Board of Trustees of the Leland Stanford Junior …, priority 2015, dated 2019):

Test system: SU-pcGBM2 cells
Assay: EdU incorporation assay, proliferation index of pHGG cells (SU-pcGBM2)
Assay type: cell-based, human

Molecule | effect on proliferation index relative to aCSF control (recombinant candidate proteins at 100 nM for 24 hours) | effect on pHGG cell proliferation (recombinant NLGN2 at 1, 10 or 100 nM for 24 hours)
brevican: Recombinant candidate protein from proteomic analyses of cortical slice conditioned media (protein, UniProt Q96GW7 23-911, looked up) Brevican core protein: DVLEGDSSEDRAFRVRIAGDAPLQGVLGGALTIPCHVHYLRPPPSRRAVLGSPRVKWTFLSRGREAEVLVARGVRVKVNEAYRFRVALPAYPASLTDVSLALSELRPNDSGIYRCEVQHGIDDSSDAVEVKVKGVVFLYREGSARYAFSFSGAQEACARIGAHIATPEQLYAAYLGGYEQCDAGWLSDQTVRYPIQTPREACYGDMDGFPGVRNYGVVDPDDLYDVYCYAEDLNGELFLGDPPEKLTLEEARAYCQERGAEIATTGQLYAAWDGGLDHCSPGWLADGSVRYPIVTPSQRCGGGLPGVKTLFLFPNQTGFPNKHSRFNVYCFRDSAQPSAIPEASNPASNPASDGLEAIVTVTETLEELQLPQEATESESRGAIYSIPIMEDGGGGSSTPEDPAEAPRTLLEFETQSMVPPTGFSEEEGKALEEEEKYEDEEEKEEEEEEEEVEDEALWAWPSELSSPGPEASLPTEPAAQEESLSQAPARAVLQPGASPLPDGESEASRPPRVHGPPTETLPTPRERNLASPSPSTLVEAREVGEATGGPELSGVPRGESEETGSSEGAPSLLPATRAPEGTRELEAPSEDNSGRTAPAGTSVQAQPVLPTDSASRGGVAVVPASGDCVPSPCHNGGTCLEEEEGVRCLCLPGYGGDLCDVGLRFCNPGWDAFQGACYKHFSTRRSWEEAETQCRMYGAHLASISTPEEQDFINNRYREYQWIGLNDRTIEGDFLWSDGVPLLYENWNPGQPDSYFLSGENCVVMVWHDQGQWSDVPCNYHLSYTCKMGLVSCGPPPELPLAQVFGRPRLRYEVDTVLRYRCREGLAQRNLPLIRCQENGRWEAPQISCVPRRPARALHPEEDPEGRQGRLLGRWKALLIPPSSPMPGP | did not differ | 
NLGN2: Recombinant soluble neuroligin-2 (protein, UniProt Q8NFZ4 15-677, looked up, extracellular domain) extracellular domain: QRGGGGPGGGAPGGPGLGLGSLGEERFPVVNTAYGRVRGVRRELNNEILGPVVQFLGVPYATPPLGARRFQPPEAPASWPGVRNATTLPPACPQNLHGALPAIMLPVWFTDNLEAAATYVQNQSEDCLYLNLYVPTEDGPLTKKRDEATLNPPDTDIRDPGKKPVMLFLHGGSYMEGTGNMFDGSVLAAYGNVIVATLNYRLGVLGFLSTGDQAAKGNYGLLDQIQALRWLSENIAHFGGDPERITIFGSGAGASCVNLLILSHHSEGLFQKAIAQSGTAISSWSVNYQPLKYTRLLAAKVGCDREDSAEAVECLRRKPSRELVDQDVQPARYHIAFGPVVDGDVVPDDPEILMQQGEFLNYDMLIGVNQGEGLKFVEDSAESEDGVSASAFDFTVSNFVDNLYGYPEGKDVLRETIKFMYTDWADRDNGEMRRKTLLALFTDHQWVAPAVATAKLHADYQSPVYFYTFYHHCQAEGRPEWADAAHGDELPYVFGVPMVGATDLFPCNFSKNDVMLSAVVMTYWTNFAKTGDPNQPVPQDTKFIHTKPNRFEEVVWSKFNSKEKQYLHIGLKPRVRDNYRANKVAFWLELVPHLHNLHTELFTTTTRLPPYATRWPPRPPAGAPGTRRPPPPATLPPEPEPEPGPRAYDRFPGDSRDYSTELS |  | No effect of NLGN2 on pHGG cell proliferation was observed
